Data taken from publication PMC2606909 (Molecular pharmacology, 2008).

Molecular target: purified bovine arrestin3 (bovine, UniProt P32120 1-420)
Assay: pull-down

Chain of purified bovine arrestin3 (P32120 whole entry): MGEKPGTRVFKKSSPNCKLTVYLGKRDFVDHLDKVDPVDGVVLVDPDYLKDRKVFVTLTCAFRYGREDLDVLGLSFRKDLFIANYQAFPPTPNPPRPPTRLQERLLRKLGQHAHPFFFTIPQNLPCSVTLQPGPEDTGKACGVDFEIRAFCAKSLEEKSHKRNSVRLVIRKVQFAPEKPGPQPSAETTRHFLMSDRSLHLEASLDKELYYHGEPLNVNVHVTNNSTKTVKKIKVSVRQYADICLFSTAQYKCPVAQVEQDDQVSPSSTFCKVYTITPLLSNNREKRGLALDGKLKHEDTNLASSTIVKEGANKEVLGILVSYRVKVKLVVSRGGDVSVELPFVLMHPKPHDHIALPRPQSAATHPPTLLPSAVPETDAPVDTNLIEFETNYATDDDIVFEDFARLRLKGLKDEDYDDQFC

Kd | Binder
242 nM | SIDRYTAVAMPMLYNTRYSSKRRVT (domain or fragment, rat, UniProt P61169 129-153, looked up) [GST-D2-IC2]
1100 nM | SIDRYTAVVMPVHYQHGTGQSSCRRVA (domain or fragment, rat, UniProt P19020 125-151, looked up) [GST-D3-IC2]
